The values below come from US20150258217A1, “Methods of Synthesizing and Using Peg-Like Fluorochromes” (THE GENERAL HOSPITAL CORPORATION, priority 2012, published 2015).

The conditions of this series: mouse, in vivo. The method, then:
At two hours post injection, agent is in the blood and interstitium. By 24 hours post injection, tumors are becoming apparent as agent is being cleared. At 48 hours, labeling is highly tumor selective. […] By surface fluorescence, as with SPECT, labeling is highly tumor selective at 48 hours. Biodistribution as organ radioactivity concentrations FIG. 26(c) and total organ radioactivity FIG. 26(d) were obtained by dissection and ^111In counting at 24 hours and 48 hours post injection. Even at 48 hours post injection some 7.5% of injected dose is in the blood, with less than 5% in liver, even though the diameter of PN(783)10.0 exceeds that of albumin (6.7 nm). Data are means and standard deviations. […] By 72 hours, some 17% of injected dose was retained, approximately half of which was still in the blood based on FIG. 26d.

For “(DOTA)Lys(PEG30K)-Cys(IR-783) [PN(783)10.0]”, the “injected dose retained (whole animal)” value was about 17%.
